Patent publication US20200332015A1 (NAMAB THERAPEUTICS, published 2020)

Legend:
[1] = target: T1, human CD137 expressed on Jurkat cells (human, UniProt Q07011 24-255); assay: cell-based or functional assay
[2] = target: T1, human CD137 expressed on Jurkat cells; assay: cell-based or functional assay; remark: listed apart in the source
[3] = target: T1, human CD137 expressed on Jurkat cells; assay: cell-based or functional assay; remark: listed apart in the source
[4] = target: T1, human CD137 expressed on Jurkat cells; assay: cell-based or functional assay; remark: listed apart in the source
[5] = target: T2, human PDL1 extracellular domain (human, UniProt Q9NZQ7 19-238); assay: SPR T200, Morrison format captured, ECD analyte
T2 construct: extracellular domain; Analyte for the Fc containing Morrison formats
Method: (§1) Affinity to PDL1 of the different species was determined by SPR measurements using a Biacore T200 device (GE Healthcare). An antibody specific for the Fc region of human IgGs was immobilized on a sensor chip (CM5 sensor chip, GE Healthcare) by amine-coupling. For all formats, with the exception of the Fc containing Morrison formats, PDL1-Fc chimeric protein from different species were captured by the immobilized antibody. Three-fold serial dilutions of the molecules specific for PDL1 (0.12-90 nM) were injected into the flow cells for three minutes and dissociation was monitored for 10 minutes. After each injection cycle, surfaces were regenerated with one injection of a 3 M MgCl₂ solution. The apparent dissociation (kd) and association (kₐ) rate constants and the apparent dissociation equilibrium constant (KD) were calculated using one-to-one Langmuir binding model. Affinity to CD137 of the different species was determined using the identical setup as for PDL1 with the exception that CD137-Fc chimeric proteins from different species were captured by the immobilized antibody.
(§2) The Fc containing formats were directly captured by the antibody specific for the Fc region of human IgGs. Two-fold serial dilutions of PDL1 extracellular domain or CD137 extracellular domain ranging from 90 to 0.35 nM were tested for binding to the IgG captured on the biosensor chip. After each injection cycle, surfaces were regenerated with one injection of a 3 M MgCl2 solution.

[6] = target: T3, recombinant human CD137 extracellular domain (Peprotech, cat. 310-15-1MG) (human, UniProt Q07011 24-186); assay: SPR T200, Morrison format captured, ECD analyte
T3 construct: also called human CD137 ECD; CD137 ECD
Method: as §1, §2

[7] = target: human PDL1-Fc chimeric protein (human, UniProt Q9NZQ7 19-238, limits assumed); assay: SPR T200, antigen-Fc captured, molecule as analyte
Summary of the method: (§3)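 Biacore T200: anti-Fc antibody amine-coupled on CM5 chip captures chimeras of different species. Molecules injected as three-fold dilutions (0.12-90 nM) for 3 min, dissociation 10 min, 3 M MgCl₂ regeneration. Apparent ka, kd and KD from 1:1 Langmuir fit.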

[8] = target: T4, Fc tagged human CD137 (R&D Systems, cat. 838-4B-100) (human, UniProt Q07011 24-186); assay: SPR T200, antigen-Fc captured, molecule as analyte
T4 construct: also called CD137 Fc chimera; human CD137-Fc chimeric protein
Summary of the method: as §3

[9] = target: T5, mouse Fc-tagged mouse CD137 (R&D Systems, cat. 937-4B-050) (mouse, UniProt P20334 24-187); assay: SPR T200, antigen-Fc captured, molecule as analyte
T5 construct: also called mouse CD137-Fc chimeric protein
T5 sequence (looked up): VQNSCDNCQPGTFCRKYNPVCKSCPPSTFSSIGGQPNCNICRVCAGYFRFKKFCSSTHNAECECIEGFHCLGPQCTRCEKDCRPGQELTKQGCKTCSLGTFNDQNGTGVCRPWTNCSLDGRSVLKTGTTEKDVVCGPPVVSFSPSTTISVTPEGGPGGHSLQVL
Summary of the method: as §3

[10] = target: T6, cynomolgus monkey Fc-tagged CD137 (R&D Systems, cat. 9324-4B-100) (cynomolgus monkey, UniProt A9YYE7 24-186); assay: SPR T200, antigen-Fc captured, molecule as analyte
T6 construct: also called cynomolgus CD137-Fc chimeric protein
Summary of the method: as §3

[11] = target: T7, mouse serum albumin (mouse, UniProt P07724 25-608); assay: SPR T200, SA coupled to chip, pH 5.5
T7 construct: also called mouse SA; MSA
Method: (§4) Affinity of molecules to serum albumin (SA) of the different species was determined by SPR measurements using a Biacore T200 device (GE Healthcare). SA was directly coupled to a CM5 sensor chip (GE Healthcare) using amine coupling chemistry. […] The assay was run in a 1×PBS-Tween buffer at pH 5.5.

[12] = target: T8, human serum albumin (human, UniProt P02768 25-609); assay: SPR T200, SA coupled to chip, pH 5.5
T8 construct: also called human SA; HSA
Method: as §4

T6 sequence (A9YYE7 entry or part of it): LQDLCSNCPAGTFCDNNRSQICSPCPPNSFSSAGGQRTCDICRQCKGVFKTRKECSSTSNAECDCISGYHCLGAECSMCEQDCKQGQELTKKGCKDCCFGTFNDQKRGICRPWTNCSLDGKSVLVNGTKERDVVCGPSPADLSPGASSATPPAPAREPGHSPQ

B1: PRO1060 (33-03-G02 IgG1 HC with 38_02_A04 sc01 scFv, PDL1/CD137(scFv) silent Morrison) (bispecific antibody)
light: DIQMTQSPSSLSASVGDRVTITCQASQSINDYLAWYQQKPGKAPKLLIYKASTLASGVPSRFSGSGSGTDFTLTISSLQPEDFATYYCQQGYIITDIDNVFGTGTKVTVLGTVAAPSVFIFPPSDEQLKSGTASVVCLLNNFYPREAKVQWKVDNALQSGNSQESVTEQDSKDSTYSLSSTLTLSKADYEKHKVYACEVTHQGLSSPVTKSFNRGEC
heavy: QVQLQESGPGLVKPSETLSLTCKVSGFSFSSGYDMCWIRQPPGKGLEWIGCVVAGSVDITYYASWAKGRVTISVDSSKNQFSLKLSSVTAADTAVYYCARKDAYSDAFNLWGQGTLVTVSSASTKGPSVFPLAPSSKSTSGGTAALGCLVKDYFPEPVTVSWNSGALTSGVHTFPAVLQSSGLYSLSSVVTVPSSSLGTQTYICNVNHKPSNTKVDKRVEPKSCDKTHTCPPCPAPEAAGGPSVFLFPPKPKDTLMISRTPEVTCVVVDVSHEDPEVKFNWYVDGVEVHNAKTKPREEQYNSTYRVVSVLTVLHQDWLNGKEYKCKVSNKALGAPIEKTISKAKGQPREPQVYTLPPSREEMTKNQVSLTCLVKGFYPSDIAVEWESNGQPENNYKTTPPVLDSDGSFFLYSKLTVDKSRWQQGNVFSCSVMHEALHNHYTQKSLSLSPGKGGGGSGGGGSIQMTQSPSSLSASVGDRVTITCQASQSINNVLAWYQQKPGKAPKLLIYRASTLASGVPSRFSGSGSGTDFTLTISSLQPEDFATYYCQSSYGNYGDFGTGTKVTVLGGGGGSGGGGSGGGGSGGGGSQVQLQESGPGLVKPSETLSLTCKVSGFSFSNSYWICWIRQPPGKGLEWIGCTFVGSSDSTYYANWAKGRVTISVDSSKNQFSLKLSSVTAADTAVYYCARHPSDAVYGYANNLWGQGTLVTVSS
notes: IgG1 with scFv fused to the heavy chain; called bivalent; also called Morrison-H
In the case of B1, the “EC50 NFkB-luciferase, CHO-PDL1 cells, 24 h” value [1] is reported as 0.0808 µg/mL, the “max. activation, HCC827 +IFNg, 24h” value [2] is reported as 97% and the “max. activation, NF-kB reporter gene, CHO-PD-L1, 24h” value (“max. activation, NF-kB reporter gene” for short) [2] is reported as 144%. For the same binder, the “rel. IC50 (urelumab/test), HCC827 +IFNg, 24h” value [2] was 3.01 ratio, the “rel. IC50 (urelumab/test), HCC827 -IFNg, 24h” value [2] was 3.5 ratio and the “rel. IC50 (urelumab/test), NF-kB reporter gene, CHO-PD-L1, 24h” value (“rel. IC50 (urelumab/test) … CHO-PD-L1, 24h” for short) [2] was 0.58 ratio. The “EC50 NFkB-luciferase, HCC827 with IFNy stimulation” value [3] was 0.0175 µg/mL, the “EC50 NFkB-luciferase, HCC827 without IFNy stimulation” value [3] was 0.0136 µg/mL and the “EC50 NFkB-luciferase, CHO-PDL1 cells, 6 h” value [4] was 0.0564 µg/mL. For the same binder, the Kd [5] was 0.036 nM, the koff [5] was 4.6e-05 s⁻¹ and the kon [5] was 1.3e+06 M⁻¹ s⁻¹. For the same binder, the Kd [6] was 1.3 nM, the koff [6] was 0.00039 s⁻¹ and the kon [6] was 300000 M⁻¹ s⁻¹.

B2: PRO1059 (33-03-G02 IgG1 LC with 38_02_A04 sc01 scFv, PDL1/CD137(scFv) silent Morrison) (bispecific antibody)
light: DIQMTQSPSSLSASVGDRVTITCQASQSINDYLAWYQQKPGKAPKLLIYKASTLASGVPSRFSGSGSGTDFTLTISSLQPEDFATYYCQQGYIITDIDNVFGTGTKVTVLGTVAAPSVFIFPPSDEQLKSGTASVVCLLNNFYPREAKVQWKVDNALQSGNSQESVTEQDSKDSTYSLSSTLTLSKADYEKHKVYACEVTHQGLSSPVTKSFNRGECGGGGSGGGGSIQMTQSPSSLSASVGDRVTITCQASQSINNVLAWYQQKPGKAPKLLIYRASTLASGVPSRFSGSGSGTDFTLTISSLQPEDFATYYCQSSYGNYGDFGTGTKVTVLGGGGGSGGGGSGGGGSGGGGSQVQLQESGPGLVKPSETLSLTCKVSGFSFSNSYWICWIRQPPGKGLEWIGCTFVGSSDSTYYANWAKGRVTISVDSSKNQFSLKLSSVTAADTAVYYCARHPSDAVYGYANNLWGQGTLVTVSS
heavy: QVQLQESGPGLVKPSETLSLTCKVSGFSFSSGYDMCWIRQPPGKGLEWIGCVVAGSVDITYYASWAKGRVTISVDSSKNQFSLKLSSVTAADTAVYYCARKDAYSDAFNLWGQGTLVTVSSASTKGPSVFPLAPSSKSTSGGTAALGCLVKDYFPEPVTVSWNSGALTSGVHTFPAVLQSSGLYSLSSVVTVPSSSLGTQTYICNVNHKPSNTKVDKRVEPKSCDKTHTCPPCPAPEAAGGPSVFLFPPKPKDTLMISRTPEVTCVVVDVSHEDPEVKFNWYVDGVEVHNAKTKPREEQYNSTYRVVSVLTVLHQDWLNGKEYKCKVSNKALGAPIEKTISKAKGQPREPQVYTLPPSREEMTKNQVSLTCLVKGFYPSDIAVEWESNGQPENNYKTTPPVLDSDGSFFLYSKLTVDKSRWQQGNVFSCSVMHEALHNHYTQKSLSLSPGK
notes: IgG1 with scFv fused to the light chain; also called Morrison-L
B2 was tested, and the “max. activation, NF-kB reporter gene” value [2] was 189%, the “rel. IC50 (urelumab/test) … CHO-PD-L1, 24h” value [2] was 0.09 ratio and the Kd [5] was 0.056 nM. For the same binder, the koff [5] was 6.5e-05 s⁻¹, the kon [5] was 1.2e+06 M⁻¹ s⁻¹ and the Kd [6] was 2.3 nM. For the same binder, the koff [6] was 0.00042 s⁻¹ and the kon [6] was 180000 M⁻¹ s⁻¹.

B3: PRO1057 (38_02_A04 sc01 scDb-i/33-03-G02 sc01 scDb-o/mxr HSA (23-13-A01-sc03, sk17sh4)) (other)
chain: DIQMTQSPSSLSASVGDRVTITCQASQSINDYLAWYQQKPGKAPKLLIYKASTLASGVPSRFSGSGSGTDFTLTISSLQPEDFATYYCQQGYIITDIDNVFGTGTKVTVLGGGGGSQVQLQESGPGLVKPSETLSLTCKVSGFSFSNSYWICWIRQPPGKGLEWIGCTFVGSSDSTYYANWAKGRVTISVDSSKNQFSLKLSSVTAADTAVYYCARHPSDAVYGYANNLWGQGTLVTVSSGGGGSGGGGSGGGGSGGGGSIQMTQSPSSLSASVGDRVTITCQASQSINNVLAWYQQKPGKAPKLLIYRASTLASGVPSRFSGSGSGTDFTLTISSLQPEDFATYYCQSSYGNYGDFGTGTKVTVLGGGGGSQVQLQESGPGLVKPSETLSLTCKVSGFSFSSGYDMCWIRQPPGKGLEWIGCVVAGSVDITYYASWAKGRVTISVDSSKNQFSLKLSSVTAADTAVYYCARKDAYSDAFNLWGQGTLVTVSSGGGGSGGGGSVVMTQSPSSLSASVGDRVTITCQASQIISSRSAWYQQKPGQPPKLLIYQASKLASGVPSRFSGSGSGTDFTLTISSLQPEDFATYYCQCTYIDSNFGAFGGGTKLTVLGGGGGSGGGGSGGGGSGGGGSEVQLVESGGGLVQPGGSLRLSCAASGFSFSSSYWICWVRQAPGKGLEWVGCVFTGDGTTYYASWAKGRFTISRDNSKNTVYLQMNSLRAEDTATYFCARPVSVYYYGMDLWGQGTLVTVSS
notes: Trispecific scDb-scFv
B3 was tested, and the “EC50 NFkB-luciferase, CHO-PDL1 cells, 24 h, + HBA (so in the source)” value [1] was 0.792 µg/mL, the “Top of curve fit, NFkB-luciferase, CHO-PDL1 cells, 24 h, + HBA (so in the source)” value [1] was 745 and the “max. activation, HCC827 +IFNg, 24h” value [2] was 135%. For the same binder, the “max. activation, NF-kB reporter gene” value [2] was 663%, the “rel. IC50 (urelumab/test), HCC827 +IFNg, 24h” value [2] was 0.46 ratio and the “rel. IC50 (urelumab/test), HCC827 -IFNg, 24h” value [2] was 0.62 ratio. The “rel. IC50 (urelumab/test) … CHO-PD-L1, 24h” value [2] was 0.1 ratio, the “EC50 NFkB-luciferase, HCC827 with IFNy stimulation, +HSA” value [3] was 0.115 µg/mL and the “EC50 NFkB-luciferase, HCC827 without IFNy stimulation, +HSA” value [3] was 0.0766 µg/mL. For the same binder, the “EC50 NFkB-luciferase, CHO-PDL1 cells, 6 h, + HSA” value [4] was 0.112 µg/mL, the “Top of curve fit, NFkB-luciferase, CHO-PDL1 cells, 6 h, + HSA” value [4] was 463 and the Kd [7] was 0.11 nM. The koff [7] was 0.00017 s⁻¹, the kon [7] was 1.6e+06 M⁻¹ s⁻¹ and the Kd [8] was 5.1 nM. The koff [8] was 0.0007 s⁻¹, the kon [8] was 140000 M⁻¹ s⁻¹ and the Kd [9] was 1200 nM. It also gave a koff [9] of 0.085 s⁻¹, a kon [9] of 69000 M⁻¹ s⁻¹ and a Kd [10] of 4.8 nM. The koff [10] was 0.00079 s⁻¹, the kon [10] was 160000 M⁻¹ s⁻¹ and the Kd [11] was 66 nM. The koff [11] was 0.0085 s⁻¹, the kon [11] was 130000 M⁻¹ s⁻¹ and the Kd [12] was 2.8 nM. It also gave a koff [12] of 0.00067 s⁻¹ and a kon [12] of 240000 M⁻¹ s⁻¹.
